Experimental data taken from the supplement of paper PMC5998384.

Key:
[1] = test system: HeLa Kyoto; experiment: solubility in G1/S (NP-40 vs SDS abundance) (log2 ratio); higher = more soluble; settings: cell cycle stage: G1/S
[2] = test system: HeLa Kyoto; experiment: melting temperature (median over replicates), in situ; higher = more thermally stable
[3] = test system: HeLa Kyoto; experiment: solubility change mitosis vs G1/S (difference of NP-40 vs SDS log2 ratios) (log2 ratio difference); higher = more soluble in mitosis
[4] = test system: HeLa Kyoto; experiment: thermal stability score vs G1/S (z-score of summed log2 fold changes over temperatures); higher = more thermally stable than in G1/S
[5] = cell cycle stage: early G1 (4.5 h after nocodazole release)
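Wherever melting temperature (median over replicates), in situ is given: HeLa Kyoto cells synchronized by double thymidine or nocodazole block, proteins quantified by TMT10plex mass spectrometry, three independent biological replicates.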
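Wherever solubility change mitosis vs G1/S (difference of NP-40 vs SDS log2 ratios) is given: synchronized HeLa Kyoto cells (double thymidine block for G1/S, nocodazole release for mitosis), protein amounts in NP-40 versus SDS lysates quantified by mass spectrometry, three biological replicates.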
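Wherever solubility in G1/S (NP-40 vs SDS abundance) is given: HeLa Kyoto cells arrested at G1/S by double thymidine block, proteins quantified by TMT10plex mass spectrometry in mild NP-40 versus SDS extracts, three biological replicates.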
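Wherever thermal stability score vs G1/S (z-score of summed log2 fold changes over temperatures) is given: synchronized HeLa Kyoto cells, proteins quantified by TMT10plex mass spectrometry, three biological replicates, mitosis taken 0.5 h after nocodazole release, G1/S directly after double thymidine block.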

IRF2BP1, sequence (chain, as listed by the source): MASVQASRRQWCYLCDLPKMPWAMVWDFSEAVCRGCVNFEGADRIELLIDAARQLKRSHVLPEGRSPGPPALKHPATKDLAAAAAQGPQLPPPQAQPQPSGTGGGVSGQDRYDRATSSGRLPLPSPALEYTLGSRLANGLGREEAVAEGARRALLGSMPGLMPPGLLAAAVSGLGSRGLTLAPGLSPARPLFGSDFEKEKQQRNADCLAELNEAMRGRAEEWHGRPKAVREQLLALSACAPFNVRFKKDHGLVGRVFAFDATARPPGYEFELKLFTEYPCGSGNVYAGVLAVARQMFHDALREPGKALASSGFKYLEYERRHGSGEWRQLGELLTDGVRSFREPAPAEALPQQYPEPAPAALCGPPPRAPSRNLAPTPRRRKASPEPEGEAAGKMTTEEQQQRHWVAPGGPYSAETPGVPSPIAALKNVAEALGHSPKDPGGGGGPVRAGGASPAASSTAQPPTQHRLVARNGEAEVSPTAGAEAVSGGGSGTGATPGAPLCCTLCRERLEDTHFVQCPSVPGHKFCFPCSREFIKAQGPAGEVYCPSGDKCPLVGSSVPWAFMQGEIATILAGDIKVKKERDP

“MLSPQRVAAAASRGADDAMESSKPGPVQVVLVQKDQHSFELDEKALASILLQDHIRDLDVVVVSVAGAFRKGKSFILDFMLRYLYSQKESGHSNWLGDPEEPLTGFSWRGGSDPETTGIQIWSEVFTVEKPGGKKVAVVLMDTQGAFDSQSTVKDCATIFALSTMTSSVQIYNLSQNIQEDDLQQLQLFTEYGRLAMDEIFQKPFQTLMFLVRDWSFPYEYSYGLQGGMAFLDKRLQVKEHQHEEIQNVRNHIHSCFSDVTCFLLPHPGLQVATSPDFDGKLKDIAGEFKEQLQALIPYVLNPSKLMEKEINGSKVTCRGLLEYFKAYIKIYQGEDLPHPKSMLQATAEANNLAAAASAKDIYYNNMEEVCGGEKPYLSPDILEEKHCEFKQLALDHFKKTKKMGGKDFSFRYQQELEEEIKELYENFCKHNGSKNVFSTFRTPAVLFTGIVALYIASGLTGFIGLEVVAQLFNCMVGLLLIALLTWGYIRYSGQYRELGGAIDFGAAYVLEQASSHIGNSTQATVRDAVVGRPSMDKKAQ [ATL3]” was tested, and the “solubility in G1/S (log2)” value [1] was -0.00471, the melting temperature ([2]; cell cycle stage: G1/S) was 52.2 °C and the melting temperature ([2]; cell cycle stage: mitosis) was 51.7 °C. For the same substance, the “solubility change mitosis (log2)” value [3] was -0.139, the thermal stability score [4, 5] was -0.0896 and the thermal stability score ([4]; cell cycle stage: mitosis) was 0.487.

With IRF2BP1 the “solubility in G1/S (log2)” value [1] was 0.316, the melting temperature ([2]; cell cycle stage: G1/S) was 46.9 °C and the melting temperature ([2]; cell cycle stage: mitosis) was 49.5 °C. The “solubility change mitosis (log2)” value [3] was -0.0595, the thermal stability score [4, 5] was 1.4 and the thermal stability score ([4]; cell cycle stage: mitosis) was 3.22.

With “MMEDDGQPRTLYVGNLSRDVTEVLILQLFSQIGPCKSCKMITEHTSNDPYCFVEFYEHRDAAAALAAMNGRKILGKEVKVNWATTPSSQKKDTSNHFHVFVGDLSPEITTEDIKSAFAPFGKISDARVVKDMATGKSKGYGFVSFYNKLDAENAIVHMGGQWLGGRQIRTNWATRKPPAPKSTQENNTKQLRFEDVVNQSSPKNCTVYCGGIASGLTDQLMRQTFSPFGQIMEIRVFPEKGYSFVRFSTHESAAHAIVSVNGTTIEGHVVKCYWGKESPDMTKNFQQVDYSQWGQWSQVYGNPQQYGQYMANGWQVPPYGVYGQPWNQQGFGVDQSPSAAWMGGFGAQPPQGQAPPPVIPPPNQAGYGMASYQTQ [TIAL1]” the “solubility in G1/S (log2)” value [1] was 0.13, the melting temperature ([2]; cell cycle stage: G1/S) was 52.3 °C and the melting temperature ([2]; cell cycle stage: mitosis) was 52 °C. For the same substance, the “solubility change mitosis (log2)” value [3] was -0.0732, the thermal stability score [4, 5] was -1.16 and the thermal stability score ([4]; cell cycle stage: mitosis) was -2.29.

For “MQSTSNHLWLLSDILGQGATANVFRGRHKKTGDLFAIKVFNNISFLRPVDVQMREFEVLKKLNHKNIVKLFAIEEETTTRHKVLIMEFCPCGSLYTVLEEPSNAYGLPESEFLIVLRDVVGGMNHLRENGIVHRDIKPGNIMRVIGEDGQSVYKLTDFGAARELEDDEQFVSLYGTEEYLHPDMYERAVLRKDHQKKYGATVDLWSIGVTFYHAATGSLPFRPFEGPRRNKEVMYKIITGKPSGAISGVQKAENGPIDWSGDMPVSCSLSRGLQVLLTPVLANILEADQEKCWGFDQFFAETSDILHRMVIHVFSLQQMTAHKIYIHSYNTATIFHELVYKQTKIISSNQELIYEGRRLVLEPGRLAQHFPKTTEENPIFVVSREPLNTIGLIYEKISLPKVHPRYDLDGDASMAKAITGVVCYACRIASTLLLYQELMRKGIRWLIELIKDDYNETVHKKTEVVITLDFCIRNIEKTVKVYEKLMKINLEAAELGEISDIHTKLLRLSSSQGTIETSLQDIDSRLSPGGSLADAWAHQEGTHPKDRNVEKLQVLLNCMTEIYYQFKKDKAERRLAYNEEQIHKFDKQKLYYHATKAMTHFTDECVKKYEAFLNKSEEWIRKMLHLRKQLLSLTNQCFDIEEEVSKYQEYTNELQETLPQKMFTASSGIKHTMTPIYPSSNTLVEMTLGMKKLKEEMEGVVKELAENNHILERFGSLTMDGGLRNVDCL [TBK1]”, the “solubility in G1/S (log2)” value [1] was -0.00961, the melting temperature ([2]; cell cycle stage: G1/S) was 48.6 °C and the melting temperature ([2]; cell cycle stage: mitosis) was 48.6 °C. For the same substance, the “solubility change mitosis (log2)” value [3] was -0.105, the thermal stability score [4, 5] was 0.969 and the thermal stability score ([4]; cell cycle stage: mitosis) was 1.43.

With “MADDDVLFEDVYELCEVIGKGPFSVVRRCINRETGQQFAVKIVDVAKFTSSPGLSTEDLKREASICHMLKHPHIVELLETYSSDGMLYMVFEFMDGADLCFEIVKRADAGFVYSEAVASHYMRQILEALRYCHDNNIIHRDVKPHCVLLASKENSAPVKLGGFGVAIQLGESGLVAGGRVGTPHFMAPEVVKREPYGKPVDVWGCGVILFILLSGCLPFYGTKERLFEGIIKGKYKMNPRQWSHISESAKDLVRRMLMLDPAERITVYEALNHPWLKERDRYAYKIHLPETVEQLRKFNARRKLKGAVLAAVSSHKFNSFYGDPPEELPDFSEDPTSSGLLAAERAVSQVLDSLEEIHALTDCSEKDLDFLHSVFQDQHLHTLLDLYDKINTKSSPQIRNPPSDAVQRAKEVLEEISCYPENNDAKELKRILTQPHFMALLQTHDVVAHEVYSDEALRVTPPPTSPYLNGDSPESANGDMDMENVTRVRLVQFQKNTDEPMGITLKMNELNHCIVARIMHGGMIHRQGTLHVGDEIREINGISVANQTVEQLQKMLREMRGSITFKIVPSYRTQSSSCERDSPSTSRQSPANGHSSTNNSVSDLPSTTQPKGRQIYVRAQFEYDPAKDDLIPCKEAGIRFRVGDIIQIISKDDHNWWQGKLENSKNGTAGLIPSPELQEWRVACIAMEKTKQEQQASCTWFGKKKKQYKDKYLAKHNAVFDQLDLVTYEEVVKLPAFKRKTLVLLGAHGVGRRHIKNTLITKHPDRFAYPIPHTTRPPKKDEENGKNYYFVSHDQMMQDISNNEYLEYGSHEDAMYGTKLETIRKIHEQGLIAILDVEPQALKVLRTAEFAPFVVFIAAPTITPGLNEDESLQRLQKESDILQRTYAHYFDLTIINNEIDETIRHLEEAVELVCTAPQWVPVSWVY [CASK]” the “solubility in G1/S (log2)” value [1] was -0.129, the melting temperature ([2]; cell cycle stage: G1/S) was 52.1 °C and the melting temperature ([2]; cell cycle stage: mitosis) was 51.9 °C. For the same substance, the “solubility change mitosis (log2)” value [3] was -0.0742, the thermal stability score [4, 5] was -0.366 and the thermal stability score ([4]; cell cycle stage: mitosis) was -0.0785.

“MLSRVVLSAAATAAPSLKNAAFLGPGVLQATRTFHTGQPHLVPVPPLPEYGGKVRYGLIPEEFFQFLYPKTGVTGPYVLGTGLILYALSKEIYVISAETFTALSVLGVMVYGIKKYGPFVADFADKLNEQKLAQLEEAKQASIQHIQNAIDTEKSQQALVQKRHYLFDVQRNNIAMALEVTYRERLYRVYKEVKNRLDYHISVQNMMRRKEQEHMINWVEKHVVQSISTQQEKETIAKCIADLKLLAKKAQAQPVM [ATP5F1]” was tested, and the “solubility in G1/S (log2)” value [1] was 0.102, the melting temperature ([2]; cell cycle stage: G1/S) was 52.8 °C and the melting temperature ([2]; cell cycle stage: mitosis) was 53.8 °C. The “solubility change mitosis (log2)” value [3] was 0.116, the thermal stability score [4, 5] was -0.0719 and the thermal stability score ([4]; cell cycle stage: mitosis) was -1.2.

FAM98A was tested, and the “solubility in G1/S (log2)” value [1] was -0.0181, the melting temperature ([2]; cell cycle stage: G1/S) was 53.4 °C and the melting temperature ([2]; cell cycle stage: mitosis) was 51.3 °C. For the same substance, the “solubility change mitosis (log2)” value [3] was 0.324, the thermal stability score [4, 5] was -1.25 and the thermal stability score ([4]; cell cycle stage: mitosis) was -0.239.

For FAT1, the “solubility in G1/S (log2)” value [1] was -0.133, the melting temperature ([2]; cell cycle stage: G1/S) was 53.5 °C and the melting temperature ([2]; cell cycle stage: mitosis) was 53.5 °C. The “solubility change mitosis (log2)” value [3] was -0.025, the thermal stability score [4, 5] was 0.357 and the thermal stability score ([4]; cell cycle stage: mitosis) was 0.56.

With “MSSCVSSQPSSNRAAPQDELGGRGSSSSESQKPCEALRGLSSLSIHLGMESFIVVTECEPGCAVDLGLARDRPLEADGQEVPLDTSGSQARPHLSGRKLSLQERSQGGLAAGGSLDMNGRCICPSLPYSPVSSPQSSPRLPRRPTVESHHVSITGMQDCVQLNQYTLKDEIGKGSYGVVKLAYNENDNTYYAMKVLSKKKLIRQAGFPRRPPPRGTRPAPGGCIQPRGPIEQVYQEIAILKKLDHPNVVKLVEVLDDPNEDHLYMVFELVNQGPVMEVPTLKPLSEDQARFYFQDLIKGIEYLHYQKIIHRDIKPSNLLVGEDGHIKIADFGVSNEFKGSDALLSNTVGTPAFMAPESLSETRKIFSGKALDVWAMGVTLYCFVFGQCPFMDERIMCLHSKIKSQALEFPDQPDIAEDLKDLITRMLDKNPESRIVVPEIKLHPWVTRHGAEPLPSEDENCTLVEVTEEEVENSVKHIPSLATVILVKTMIRKRSFGNPFEGSRREERSLSAPGNLLTKKPTRECESLSELKEARQRRQPPGHRPAPRGGGGSALVRGSPCVESCWAPAPGSPARMHPLRPEEAMEPE [CAMKK2]” the “solubility in G1/S (log2)” value [1] was 0.289, the “solubility change mitosis (log2)” value [3] was -0.0691 and the thermal stability score [4, 5] was -0.348. For the same substance, the thermal stability score ([4]; cell cycle stage: mitosis) was -0.0506.

For “MALFYVARYPGPDAAAAAGPEGAEAGAHGRARALLERLQSRARERQQQREPAQTEAAASTEPATRRRRRPRRRRRVNDAEPGSPEAPQGKRRKADGEDAGAESNEEAPGEPSAGSSEEAPGEPSAGSSEEAPGERSTSASAEAAPDGPALEEAAGPLVPGLVLGGFGKRKAPKVQPFLPRWLAEPNCVRRNVTEDLVPIEDIPDVHPDLQKQLRAHGISSYFPVQAAVIPALLESAACGFLVGRGGYRPSDLCVSAPTGSGKTLAFVIPVVQALLSRVVCHIRALVVLPTKELAQQVSKVFNIYTDATPLRVSLVTGQKSLAKEQESLVQKTADGYRCLADIVVATPGRLVDHIDQTPGFSLQQLRFLIIDEADRMIDSMHQSWLPRVVAAAFQSEDPADPCALLQRRQAQAVTAASTCCPQMPLQKLLFSATLTQNPEKLQQLGLHQPRLFSTGLAHRGLEDTDGDGDSGKYAFPVGLTHHYVPCSLSSKPLVVLHLVLEMGFSRVLCFTNSRENSHRLFLLVQAFGGVDVAEFSSRYGPGQRRMILKQFEQGKIQLLISTDATARGIDVQGVELVVNYDAPQYLRTYVHRVGRTARAGKTGQAFTLLLKVQERRFLRMLTEAGAPELQRHELSSKLLQPLVPRYEEALSQLEESVKEERKQRAA [DDX51]”, the “solubility in G1/S (log2)” value [1] was -1.48, the “solubility change mitosis (log2)” value [3] was 1.23 and the thermal stability score [4, 5] was -0.0942. It also gave a thermal stability score ([4]; cell cycle stage: mitosis) of 1.3.
